In series [1] the target is T1, lysine-methylated dimeric PICK1 PDZ-QSAV (human | , UniProt Q9NRD5 1-105, surface lysines methylated with 19C-labeled formaldehyde (so in the source)).
T1 construct: human PICK1, residues 1 to 105, holding the PDZ domain; The methods say 'dimeric PICK1 PDZ-QSAV'; also called methylated PICK1 PDZ material; source: E. coli BL21 (DE3), purified; surface lysines methylated with labelled formaldehyde and sodium cyanoborohydride
T1 chain: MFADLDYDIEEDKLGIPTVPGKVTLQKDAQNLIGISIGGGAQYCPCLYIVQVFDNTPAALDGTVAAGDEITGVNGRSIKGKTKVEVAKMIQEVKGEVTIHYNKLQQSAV
The series can be described thus: NMR titration; 1H-13C HSQC of lysine-methylated dimeric PICK1 PDZ-QSAV with GluA2 peptide added; 40 mM sodium phosphate pH 6.8, 150 mM NaCl, 0.2 mM EDTA, DMSO, D2O; 298 K. The conditions noted are these: both partners purified.

Series [2] concerns the molecule itself. The series can be described thus: SEC; Superdex 75 in 25 mM TRIS-HCl pH 8.0, 250 mM NaCl, 5% glycerol, 2 mM DTT (reducing conditions). Background: Size exclusion chromatography separates by hydrodynamic size, large species first.
Series [3] concerns the molecule itself. Put plainly: crystal structure; disulfide-locked PICK1 PDZ-QSAV dimer, crystallised with 4.5 molar equivalents of BIO124; 0.1 M BisTRIS pH 5.5, 25% PEG3350, 4°C; 2.44 Å.
Series [4] deals with the molecule itself. The series can be described thus: crystal structure; disulfide-bridged, bCPA-treated PICK1 PDZ-QS dimer with BIO124, seeded with PICK1 PDZ-QSAV crystals; 0.1 M BisTRIS pH 5.5, 25% PEG3350, 4°C; 1.75 Å.

B1: wild type GluA2 peptide (VYGIESVKI) (peptide)
peptide: VYGIESVKI
notes: also called Wt GluR2 peptide; source: synthetic peptide, bought: New England Peptide
Turning to B1, in series [1], the binding result is on record as “binds”.

B2: PICK1 PDZ-QSAV (unlocked, reduced dimer) (domain or fragment)
chain: T1 chain
notes: The His tag is TEV cleavable; no cleavage step is described; also called PICK1 PDZ-QSAV protein; source: E. coli BL21 (DE3), purified (nickel resin, Superdex 75)
One may read the stoichiometry N as the number of molecules, sites or subunits per partner or assembly. With B2, in series [2], the “stoichiometry N” value was determined as 2.

B3: disulfide-bridged (locked) PICK1 PDZ-QSAV dimer (domain or fragment)
chain: T1 chain
modifications: intermolecular disulfides C44(A)-C46(B) and C44(B)-C46(A)
notes: human PICK1, residues 1 to 105, holding the PDZ domain; Same construct as m1 after oxidation; crystallised in the presence of BIO124, which was not seen in the structure; also called dimeric PICK1 PDZ-QSAV; oxidized dimer; source: E. coli BL21 (DE3), purified (nickel resin, Superdex 75), oxidised with 2.5 mM H2O2, Superdex 75
Consider B3, for which, in series [3], the binding result is “binds”.

B4: bCPA-treated PICK1 PDZ-QS (disulfide-bridged dimer, with BIO124) (domain or fragment)
chain: MFADLDYDIEEDKLGIPTVPGKVTLQKDAQNLIGISIGGGAQYCPCLYIVQVFDNTPAALDGTVAAGDEITGVNGRSIKGKTKVEVAKMIQEVKGEVTIHYNKLQQS
modifications: disulfide-bridged dimer
notes: human PICK1, residues 1 to 105, holding the PDZ domain; what is left of the fused PKCalpha QSAV tail after removal of the 0 and -1 position residues (AV) by carboxypeptidase A; Removal of AV was >95% by mass spectrometry; the small molecule BIO124 sits in the peptide groove of both chains; also called PICK1 PDZ-QS BIO124 complex; PICK1-PDZ-BIO124; source: E. coli BL21 (DE3), purified, oxidised …
As for B4, the binding result in series [4] is “binds”.

Values taken from publication PMC5818740 (Protein Science : A Publication of the Protein Society, 2018).
